Source: patent US20240335558A1, “ISOLATED POLYPEPTIDE AND USE THEREOF” (GLYCO-THERAPY BIOTECHNOLOGY CO., LTD., priority 2021, published 2024)

B1: HpFT-0HR: HpFT variant: catalytically active domain and C-terminus fused His tag, no heptapeptide repeat (protein)
chain: MFQPLLDAFIESASIEKMVSKSPPPPLKIAVANWWGDEEIKEFKKSVLYFILSQRYAITLHQNPNESSDLVFSNPLGAARKILSYQNTKRVFYTGENESPNFNLFDYAIGFDELDFNDRYLRMPLYYAHLHYEAELVNDTTAPYKLKDNSLYALKKPSHHFKENHPNLCAVVNDESDLLKRGFASFVASNANAPMRNAFYDALNSIEPVTGGGSVRNTLGYKVGNKSEFLSQYKFNLCFENSQGYGYVTEKILDAYFSHTIPIYWGSPSVAKDFNPKSFVNVHDFNNFDEAIDYIKYLHTHPNAYLDMLYENPLNTLDGKAYFYQDLSFKKILDFFKTILENDTIYHNNPFIFYRDLHEPLISILEHHHHHH
modifications: Catalytically active domain of Helicobacter pylori Alpha-(1,3)-fucosyltransferase (GenBank No.AAD07710.1) with a C-terminal His tag
B2: HpFT-1HR: H. pylori α-1,3-fucosyltransferase variant: catalytically active domain, a heptapeptide repeat sequence and C-terminus fused His tag (protein)
chain: MFQPLLDAFIESASIEKMVSKSPPPPLKIAVANWWGDEEIKEFKKSVLYFILSQRYAITLHQNPNESSDLVFSNPLGAARKILSYQNTKRVFYTGENESPNFNLFDYAIGFDELDFNDRYLRMPLYYAHLHYEAELVNDTTAPYKLKDNSLYALKKPSHHFKENHPNLCAVVNDESDLLKRGFASFVASNANAPMRNAFYDALNSIEPVTGGGSVRNTLGYKVGNKSEFLSQYKFNLCFENSQGYGYVTEKILDAYFSHTIPIYWGSPSVAKDFNPKSFVNVHDFNNFDEAIDYIKYLHTHPNAYLDMLYENPLNTLDGKAYFYQDLSFKKILDFFKTILENDTIYHNNPFIFYRDLHEPLISIDDLRVNYLEHHHHHH
modifications: Catalytically active domain of Helicobacter pylori Alpha-(1,3)-fucosyltransferase (GenBank No.AAD07710.1) with 1 heptapeptide repeat and a C-terminal His tag
B3: HpFT-6HR: HpFT variant: catalytically active domain, six heptapeptide repeat sequences and C-terminus fused His tag (protein)
chain: MFQPLLDAFIESASIEKMVSKSPPPPLKIAVANWWGDEEIKEFKKSVLYFILSQRYAITLHQNPNESSDLVFSNPLGAARKILSYQNTKRVFYTGENESPNFNLFDYAIGFDELDFNDRYLRMPLYYAHLHYEAELVNDTTAPYKLKDNSLYALKKPSHHFKENHPNLCAVVNDESDLLKRGFASFVASNANAPMRNAFYDALNSIEPVTGGGSVRNTLGYKVGNKSEFLSQYKFNLCFENSQGYGYVTEKILDAYFSHTIPIYWGSPSVAKDFNPKSFVNVHDFNNFDEAIDYIKYLHTHPNAYLDMLYENPLNTLDGKAYFYQDLSFKKILDFFKTILENDTIYHNNPFIFYRDLHEPLISIDDLRVNYDDLRVNYDDLRVNYDDLRVNYDDLRVNYDDLRVNYLEHHHHHH
modifications: Catalytically active domain of Helicobacter pylori Alpha-(1,3)-fucosyltransferase (GenBank No.AAD07710.1) with 6 heptapeptide repeats and a C-terminal His tag
B4: HpFT-3HR: H. pylori α-1,3-fucosyltransferase variant: catalytically active domain, three heptapeptide repeat sequences and C-terminus fused His tag (protein)
chain: MFQPLLDAFIESASIEKMVSKSPPPPLKIAVANWWGDEEIKEFKKSVLYFILSQRYAITLHQNPNESSDLVFSNPLGAARKILSYQNTKRVFYTGENESPNFNLFDYAIGFDELDFNDRYLRMPLYYAHLHYEAELVNDTTAPYKLKDNSLYALKKPSHHFKENHPNLCAVVNDESDLLKRGFASFVASNANAPMRNAFYDALNSIEPVTGGGSVRNTLGYKVGNKSEFLSQYKFNLCFENSQGYGYVTEKILDAYFSHTIPIYWGSPSVAKDFNPKSFVNVHDFNNFDEAIDYIKYLHTHPNAYLDMLYENPLNTLDGKAYFYQDLSFKKILDFFKTILENDTIYHNNPFIFYRDLHEPLISIDDLRVNYDDLRVNYDDLRVNYLEHHHHHH
modifications: Catalytically active domain of Helicobacter pylori Alpha-(1,3)-fucosyltransferase (GenBank No.AAD07710.1) with 3 heptapeptide repeats and a C-terminal His tag

How the values were obtained:
Format in all cases: biochemical
[1] = tested on: Trastuzumab-(Fucα1,6)(GalNAzβ1,4)GlcNAc; assay: Transfer of GDP-FAmP4Biotin to Trastuzumab-(Fucα1,6)(GalNAzβ1,4)GlcNAc by different HpFTs; details: donor GDP-FAmP4Biotin 1 mM, enzyme 0.5 mg/mL, 30° C., 3 h; FIG. 3
[2] = tested on: Trastuzumab-(GalNAzβ1,4)GlcNAc; assay: Transfer of GDP-FAmP4Biotin to Trastuzumab-(GalNAzβ1,4)GlcNAc by different HpFTs; details: donor GDP-FAmP4Biotin 1 mM, enzyme 0.5 mg/mL, 30° C., 3 h; FIG. 4
[3] = tested on: Trastuzumab-(Fucα1,6)(Galβ1,4)GlcNAc; assay: Transfer of GDP-FAmP4Biotin to Trastuzumab-(Fucα1,6)(Galβ1,4)GlcNAc by different HpFTs; details: donor GDP-FAmP4Biotin 1 mM, enzyme 0.5 mg/mL, 30° C., 1 h; FIG. 2
Protocol: To 40 mM Tris-HCl (pH 7.5) buffer were added Trastuzumab-(Fucα1,6)(Galβ1,4)GlcNAc (2 mg/mL final), GDP-FAmP4Biotin (1 mM final), MgCl2 (20 mM final), and different HpFT enzymes (HpFT-4HR, HpFT-4HR(M4), HpFT-4HR(M7), HpFT-6HR, HpFT-3HR, HpFT-2HR, HpFT-1HR or HpFT-0HR) (0.5 mg/mL final) in sequence, and the resulting mixed solution was allowed to react at 30° C. for 1 h. Three parallels were set up for each group. After the reaction time point was reached, to the reaction solution was added 10 mM LacNA, and the reaction was terminated by a desalting column (Zeba™ Spin Desalting Columns/2 ml/40K, Thermo Fisher Scientific), and finally mass spectrometry was carried out and % of conversion was calculated. % of conversion=(MAR0 peak intensity*0+MAR1peak intensity*1+MAR2 peak intensity*2)/2* (MAR0 peak intensity+MAR1 peak intensity+MAR2 peak intensity)*100%.

[4] = tested on: Trastuzumab-G2F; assay: Transfer of GDP-FAmP4Biotin to Trastuzumab-G2F by different HpFTs (% of conversion by MS); details: donor GDP-FAmP4Biotin 1 mM, enzyme 0.5 mg/mL, 30° C., 3 h; FIG. 1
Protocol: To 40 mM Tris-HCl (pH 7.5) buffer were added Trastuzumab-G2F (2 mg/mL final), GDP-FAmP4Biotin (1 mM final), MgCl2 (20 mM final), and different HpFT enzymes (HpFT-4HR, HpFT-4HR(M4), HpFT-4HR(M7), HpFT-6HR, HpFT-3HR, HpFT-2HR, HpFT-1HR, or HpFT-0HR) (0.5 mg/mL final) in sequence, and the resulting mixed solution was allowed to react at 30° C. for 3 h. Three parallels were set up for each group. After the reaction time point was reached, to the reaction solution was added 10 mM LacNAc (N-acetyl-D-lactosamine), and the reaction was terminated by a desalting column (Zeba™ Spin Desalting Columns/2 ml/40K, Thermo Fisher Scientific), and finally mass spectrometry was carried out and % of conversion was calculated. % of conversion=(MAR0 peak intensity*0+MAR1peak intensity*1+MAR2 peak intensity*2+MAR3 peak intensity*3+MAR4 peak intensity*4)/4* (MAR0 peak intensity+MAR1 peak intensity+MAR2 peak intensity+MAR3 peak intensity+MAR4 peak intensity)*100%.

Molecule | catalytic activity as compared with HpFT-4HR (% of conversion) [1] | catalytic activity as compared with HpFT-4HR (% of conversion) [2] | catalytic activity as compared with HpFT-4HR (% of conversion) [3] | catalytic activity among the HpFT variants [1] | catalytic activity among the HpFT variants [2] | catalytic activity as compared with HpFT-4HR (% of conversion) [4]
B1 | significantly decreased activity | significantly decreased activity | significantly decreased activity | – | – | –
B2 | significantly improved catalytic activity | significantly improved catalytic activity | significantly improved catalytic activity | relatively high catalytic activity | relatively high catalytic activity | significantly improved catalytic activity
B3 | little activity change | little activity change | no obvious activity change | – | – | –
B4 | significantly improved catalytic activity | significantly improved catalytic activity | significantly improved catalytic activity | – | – | significantly improved catalytic activity
